Source: patent publication US20150376261A1
Each block holds one binder with its values, some of them ahead of it.

What was measured:
Experiment in all cases: cell-based or functional assay
[1] = molecular target: M2Δi3R (human) (UniProt P08172)
[2] = molecular target: β2AR365N (human) (UniProt P07550)
[3] = molecular target: hβ1AR (human) (UniProt P08588)
Chain of hβ1AR (human) (P08588 other isoform, or with tags, fused parts or gaps): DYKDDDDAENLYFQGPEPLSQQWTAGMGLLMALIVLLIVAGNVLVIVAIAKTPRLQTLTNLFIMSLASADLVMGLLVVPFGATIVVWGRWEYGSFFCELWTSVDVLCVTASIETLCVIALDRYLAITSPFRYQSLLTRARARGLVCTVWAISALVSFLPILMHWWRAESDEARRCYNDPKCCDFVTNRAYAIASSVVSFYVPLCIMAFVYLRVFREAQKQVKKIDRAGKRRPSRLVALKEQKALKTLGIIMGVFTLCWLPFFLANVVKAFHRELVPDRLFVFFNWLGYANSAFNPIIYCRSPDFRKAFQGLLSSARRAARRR

Chain of M2Δi3R (human) (P08172 other isoform, or with tags, fused parts or gaps mutant limits assumed): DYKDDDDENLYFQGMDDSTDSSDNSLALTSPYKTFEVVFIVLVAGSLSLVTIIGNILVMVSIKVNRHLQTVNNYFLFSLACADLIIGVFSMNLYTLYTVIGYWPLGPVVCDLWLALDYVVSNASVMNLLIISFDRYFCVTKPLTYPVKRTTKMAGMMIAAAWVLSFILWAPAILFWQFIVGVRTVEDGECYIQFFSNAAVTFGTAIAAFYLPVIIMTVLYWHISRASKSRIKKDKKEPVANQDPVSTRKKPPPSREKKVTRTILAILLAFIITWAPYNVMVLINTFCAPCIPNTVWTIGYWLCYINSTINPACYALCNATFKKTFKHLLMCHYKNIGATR

IC50 ratio, carbachol: IC50 M2Δi3R / IC50high M2Δi3R-Nb9-1 fusion ([3H]-NMS competition, Sf9 membranes) [1]: 67.2 | IC50 ratio, oxotremorine M: IC50 M2Δi3R / IC50high M2Δi3R-Nb9-1 fusion [1]: 316
B1: Nb9-1 (VHH)
VHH: QVQLQESGGGLVQAGGSLRLSCAASGHTFSSARMYWVRQAPGKEREFVAAISRSGFTYSADSVKGRFTISRDIANNTVYLQMNSLQPEDTAIYTCYAAYLDEFYNDYTHYWGLGTQVTVSS

IC50 ratio, ICI-118,551: β2AR365N-Nb69 mock fusion / β2AR365N-Nb71 fusion [2]: 0.01 | IC50 ratio, alprenolol: β2AR365N-Nb69 mock fusion / β2AR365N-Nb71 fusion [2]: 1.5 | IC50 ratio, carvedilol: β2AR365N-Nb69 mock fusion / β2AR365N-Nb71 fusion [2]: 0.6 | IC50 ratio, epinephrine: β2AR365N-Nb69 mock fusion / β2AR365N-Nb71 fusion [2]: 2030 | IC50 ratio, isoproterenol: β2AR365N-Nb69 mock fusion / β2AR365N-Nb71 fusion [2]: 80 | IC50 ratio, salbutamol: β2AR365N-Nb69 mock fusion / β2AR365N-Nb71 fusion [2]: 454
B2: Nb71 (VHH)
VHH: QVQLQESGGGLVQPGGSLRLSCAASGFAFSSYELRWYRQAPGKQHELVAGITTGGNTYYADSVKGRFTISRDNAKNTVYLQMSNLRPEDTAVYACNANWDLLSDYWGQGTQVTVSS

IC50 ratio, ICI-118,551: β2AR365N-Nb69 mock fusion / β2AR365N-Nb80 fusion [2]: 0.023 | IC50 ratio, alprenolol: β2AR365N-Nb69 mock fusion / β2AR365N-Nb80 fusion [2]: 4 | IC50 ratio, carvedilol: non-fused β2AR365N / β2AR365N-Nb80 fusion [2]: 0.22 | IC50 ratio, carvedilol: β2AR365N-Nb69 mock fusion / β2AR365N-Nb80 fusion [2]: 0.4 | IC50 ratio, epinephrine: non-fused β2AR365N / β2AR365N-Nb80 fusion [2]: 1380 | IC50 ratio, epinephrine: β2AR365N-Nb69 mock fusion / β2AR365N-Nb80 fusion ([3H]-DHA competition; Nb fused to the receptor) [2]: 2070 | IC50 ratio, isoproterenol: β2AR365N-Nb69 mock fusion / β2AR365N-Nb80 fusion [2]: 670 | IC50 ratio, salbutamol: β2AR365N-Nb69 mock fusion / β2AR365N-Nb80 fusion [2]: 373 | apparent potency shift, compound 9: IC50 β2AR365N-Nb69 / IC50 β2AR365N-Nb80 fusion [2]: 71 | apparent potency shift, compound 10: IC50 β2AR365N-Nb69 / IC50 β2AR365N-Nb80 fusion [2]: 94 | apparent potency shift, epinephrine: Nb80 fusion compared to Nb69 fusion (Example 19 experiment) [2]: 855 | apparent potency shift, fragment CC56213: IC50 β2AR365N-Nb69 / IC50 β2AR365N-Nb80 fusion [2]: 22 | apparent potency shift, isoprotenerol: Nb80 fusion compared to Nb69 fusion (Example 19 experiment) [2]: 155 | concentration of exogenous Nb80 at which the epinephrine IC50 of non-fused β2AR365N equals that of the fusion [2]: 5 µM | effective intramolecular concentration of Nb80 in the β2AR365N-Nb80 fusion [2]: > 500 nM | epinephrine potency shift: IC50 of the mock fusion / IC50 of non-fused β2AR365N with 500 nM exogenous Nb80 [2]: 87 fold | epinephrine potency shift: IC50 of the mock fusion / IC50 of the β2AR365N-Nb80 fusion (Nb80 fused to the receptor) [2]: 534 fold | molar excess of exogenous Nb80 over β2AR needed to match the fusion [2]: 12500 fold | IC50 ratio, ICI-118,551: IC50 hβ1AR-Nb69 / IC50high hβ1AR-Nb80 fusion [3]: 0.077 | IC50 ratio, alprenolol: IC50 hβ1AR-Nb69 / IC50high hβ1AR-Nb80 fusion [3]: 0.988 | IC50 ratio, epinephrine: IC50 hβ1AR-Nb69 / IC50high hβ1AR-Nb80 fusion ([3H]-DHA competition, Sf9 membranes) [3]: 68.7
B3: Nb80 (VHH)
VHH: QVQLQESGGGLVQAGGSLRLSCAASGSIFSINTMGWYRQAPGKQRELVAAIHSGGSTNYANSVKGRFTISRDNAANTVYLQMNSLKPEDTAVYYCNVKDYGAVLYEYDYWGQGTQVTVSS
